According to the RNAGym collection of RNA variant scans (doi:10.1073/pnas.2313332121):
Fewer inactive variants are shown than the library holds.

B1: TPR 5TU (parent)
chain: GGAUCUUCUCGAUCUAACAAAAAAGACAAAUCUGCCACAAAGCUUGAGAGCAUCUUCGGAUGCAGAGGCGGCAGCCUUCGGUGGCGCGAUAGCGCCAACGUUCUCAACUAUGACACGCAAAACGCGUGCUCCGUUGAAUGGAGUUUAUCAUG

Variants of: B1
Assay: polymerase ribozyme fitness, log enrichment relative to wild type (log ratio); higher = more active; in vitro selection for triplet polymerase activity
In short: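 Only genotypes with ≥10 input reads and ≥1 read per output were kept after Illumina sequencing of input and output libraries. These libraries were PCR-built, transcribed mutants of each subunit of a heterodimeric triplet polymerase ribozyme, each put through one triplicate in vitro selection round with frozen incubation at −7 °C, gel excision of extended constructs, streptavidin-bead capture and RT-PCR. Fitness is a logarithmic ratio of genotype enrichment to wild-type enrichment, from inverse-variance-weighted replicate averages, with the logarithm in base 2.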

Row | Variant | polymerase ribozyme fitness (log ratio)
1 | GGAUCUUCUCGAUCUAACAAAAAAGACAAAUCUGCCACAAAGCUUGAGAGCAUCUUCGGAUGCAGAGGCGGCAGCCUUCGGUGGUGCGAUAGCGCCAACGUUCUCAACUAUGACACGCAAAACGCGUGCUCCGUUGAAUUGAGUUCAUCAUG [C85U G140U U146C] | -2.87
2 | GGAUCUUCUCGAUCUAACAAAAAAGACAAAUCUGCCACAAAGCUUGAGAGCAUCUUCGGAUGCAGAGGCGGCAGCCUUCGGUGGUUCGAUAGCGCCAACGUUCUUAACUAUGACACGCAAAACGCGUGCUCCGUAGAAUGGAGUUUAUCCUG [C85U G86U C105U U135A A150C] | ≤ -4.2
3 | GGAUCUUCUCGAUCUAACAAAAAAGACAAAUCUGCCACAAAGCUUGAGAGCAUCUUCGGAUGCAGAGGCGGCAGCCUUCGGUGGUGCGAUAGCGCCAACGUUCUCAACUAUGACACGCAAAACGCGUGCUCCGUUGAAUGAAGUUUAUCAUG [C85U G141A] | -0.0572
4 | GGAUCUUCUCGAUCUAACAAAAAAGACAAAUCUGCCACAAAGCUUGAGAGCAUCUUCGGAUGCAGAGGCGGCAGCCUUCGGUGGCACGUUAGCGCCAACGUUCUCAACUAUGACACGCAAAACGCGUGCUCCGUUGAAUGGAGCUUAUCAUG [G86A A89U U144C] | -1.64
5 | GGAUCUUCUCGAUCUAACAAAAAAGACAAAUCUGCCACAAAGCUUGAGAGCAUCUUCGGAUGCAGAGGCGGCAGCCUUCGGUGGCACGAUAGGGCCAAGGUUCUCAACUAUGACACGCAAAACGCGUGCUCCGUUGAAUGGAGUUAAUCAUG [G86A C93G C99G U146A] | -3.32
6 | GGAUCUUCUCGAUCUAACAAAAAAGACAAAUCUGCCACAAAGCUUGAGAGCAUCUUCGGAUGCAGAGGCGGCAGCCUUCGGUGGUGCGAUAGCUCCAACGUUCUCAACUAUGACACGCAAAACGCGUGCUCCGUUGAAUGGAGUUUAUCAUG [C85U G94U] | 0.0431
7 | GGAUCUUCUCGAUCUAACAAAAAAGACAAAUCUGCCACAAAGCUUGAGAGCAUCUUCGGAUGCAGAGGCGGCAGCCUUCGGUGGCACGAUAGCGCCAACGUUCUCAACUAUGACACGCAAAACGCGUGCUCCGUUGAAUGCAGUUUAUCAUG [G86A G141C] | -1.01
8 | GGAUCUUCUCGAUCUAACAAAAAAGACAAAUCUGCCACAAAGCUUGAGAGCAUCUUCGGAUGCAGAGGCGGCAGCCUUCGGUGGUGCGAUAGCGCCAACGUUCUCAAGUAUGACACGCAAAACGCGUGCUCCGUUGAAUGGAAUUUAUCGUG [C85U C108G G143A A150G] | -3.95
9 | GGAUCUUCUCGAUCUAACAAAAAAGACAAAUCUGCCACAAAGCUUGAGAGCAUCUUCGGAUGCAGAGGCGGCAGCCUUCGGUGGCACGAUAGCGCCAACGUUCUCAACUAUGACACGCAAAACGCGUGCUCCGUUGAAUGGAGUUUAACAUG [G86A U148A] | -3.4
10 | GGAUCUUCUCGAUCUAACAAAAAAGACAAAUCUGCCACAAAGCUUGAGAGCAUCUUCGGAUGCAGAGGCGGCAGCCUUCGGUGGCAUGAUAGCGCCAACGUUCUCAACUAUGACACGCAAAACGCGUGCUCCGUUGAAUGGAGUUUAUCAUG [G86A C87U] | -3.65
11 | GGAUCUUCUCGAUCUAACAAAAAAGACAAAUCUGCCACAAAGCUUGAGAGCAUCUUCGGAUGCAGAGGCGGCAGCCUUCGGUGGCCCGAUAGGGCCAACGUUCUUAACUAUGACACGCAAAACGCGUGCUCCGUUGAAUGGAGUUUAUCAUG [G86C C93G C105U] | 0.694
12 | GGAUCUUCUCGAUCUAACAAAAAAGACAAAUCUGCCACAAAGCUUGAGAGCAUCUUCGGAUGCAGAGGCGGCAGCCUUCGGUGGUGCGAUAGCGCCAACGUUCACAACUAUGACACGCAAAACGCGUGCUCCGUUGAAUGGAGAUUAUCAUG [C85U U104A U144A] | -0.68
13 | GGAUCUUCUCGAUCUAACAAAAAAGACAAAUCUGCCACAAAGCUUGAGAGCAUCUUCGGAUGCAGAGGCGGCAGCCUUCGGUGGCCCGAUAGCGCCAAGGUUCUCGACUAUGACACGCAAAACUCGUGCUCCGUUAAAUGGAGUUUACCAUG [G86C C99G A106G G124U G136A U148C] | ≤ -4.2
14 | GGAUCUUCUCGAUCUAACAAAAAAGACAAAUCUGCCACAAAGCUUGAGAGCAUCUUCGGAUGCAGAGGCGGCAGCCUUCGGUGGUGCGAUAGCGCCAACGUUCUCAACUAUGACACGCAAAACGCAUGCUCCGUUGAAUGGAGUUUAUCAUG [C85U G126A] | 0.641
15 | GGAUCUUCUCGAUCUAACAAAAAAGACAAAUCUGCCACAAAGCUUGAGAGCAUCUUCGGAUGCAGAGGCGGCAGCCUUCGGUGGUGCGAUAGCGCCAACGUUCUCAACUAUGACACGCAAAACGCCUGCUCCGUUGAAUGGAGUUUAUCAUG [C85U G126C] | -1.23
16 | GGAUCUUCUCGAUCUAACAAAAAAGACAAAUCUGCCACAAAGCUUGAGAGCAUCUUCGGAUGCAGAGGCGGCAGCCUUCGGUGGUGCGAUAGCGCCAACGUUCUCAACUAUGACACGCAAAACGCUUGCUCCGUUGAAUGGAGUUUAUCAUG [C85U G126U] | -1.6
17 | GGAUCUUCUCGAUCUAACAAAAAAGACAAAUCUGCCACAAAGCUUGAGAGCAUCUUCGGAUGCAGAGGCGGCAGCCUUCGGUGGCCCGAUAGCGCCAACGUUCUCAACUAUGACACGCAAAACGCGUGCUCCGUUGGAUGGAGUUUAUCAUG [G86C A137G] | -3.37
18 | GGAUCUUCUCGAUCUAACAAAAAAGACAAAUCUGCCACAAAGCUUGAGAGCAUCUUCGGAUGCAGAGGCGGCAGCCUUCGGUGGUGCGAUAGCGCCAACGUUCUCAACUAUGACAUGCAAAACGCGUGCUCCGUUGAAUGGAGUUUUUCAUG [C85U C116U A147U] | 0.541
19 | GGAUCUUCUCGAUCUAACAAAAAAGACAAAUCUGCCACAAAGCUUGAGAGCAUCUUCGGAUGCAGAGGCGGCAGCCUUCGGUGGCACGAUAGCGCCAACGUUCUCAACUACGACACGCAAAACGCGUGCUCCGUUGAAUGGAGUUUAUCAUG [G86A U111C] | -3.31

Row | Variant | polymerase ribozyme fitness (log ratio)
20 | GGAUCUUCUCGAUCUAACAAAAAAGACAAAUCUGCCACAAAGCUUGAGAGCAUCUUCGGAUGCAGAGGCGGCAGCCUUCGGUGGUGCGAUAGCGCCAACGUUCUCAACUAUGACACGCAAAACGCGUGCUCCGUUGAAUCGAGUUUAUCAUG [C85U G140C] | -2.76
21 | GGAUCUUCUCGAUCUAACAAAAAAGACAAAUCUGCCACAAAGCUUGAGAGCAUCUUCGGAUGCAGAGGCGGCAGCCUUCGGUGGUGCGACAGCGCCAACGUUAUCAACUAUGACACGCAAAACGCGUGCUCCGUUGAAUGGAGUUUAUCAUG [C85U U90C C103A] | ≤ -4.2
22 | GGAUCUUCUCGAUCUAACAAAAAAGACAAAUCUGCCACAAAGCUUGAGAGCAUCUUCGGAUGCAGAGGCGGCAGCCUUCGGUGGUGCGAUAGCGCCAACGUUCUCAACUAUGACACGCAAAACGCGUGCUCCGUUAAAUGGAGUUUAUCAUG [C85U G136A] | 0.767
23 | GGAUCUUCUCGAUCUAACAAAAAAGACAAAUCUGCCACAAAGCUUGAGAGCAUCUUCGGAUGCAGAGGCGGCAGCCUUCGGUGGUGCGAUAGCGCCAACGUUCUCAACUAUGACACGGAAAACGCGUGCUCCGUUGAAUGGAGUUUAUCAUG [C85U C118G] | -0.62
24 | GGAUCUUCUCGAUCUAACAAAAAAGACAAAUCUGCCACAAAGCUUGAGAGCAUCUUCGGAUGCAGAGGCGGCAGCCUUCGGUGGUGCGAUAGCGCCAACGUUCUCAACUAUGACACGCAAAACACGUGCUCCGUUGAAUGCAGUUUAUCAUG [C85U G124A G141C] | -0.515
25 | GGAUCUUCUCGAUCUAACAAAAAAGACAAAUCUGCCACAAAGCUUGAGAGCAUCUUCGGAUGCAGAGGCGGCAGCCUUCGGUGGUGCGAUAGCGCCAACGUUCUCAACUAUGACACGCAAAACGCGUGCUCCGUAGAAUGGAGUUUAUCAUG [C85U U135A] | -0.52
26 | GGAUCUUCUCGAUCUAACAAAAAAGACAAAUCUGCCACAAAGCUUGAGAGCAUCUUCGGAUGCAGAGGCGGCAGCCUUCGGUGGUGCGAUAGCGCCAACGUUCUCAACUAUGACACGCAAAACGCGUGCUCCGUCGAAUGGAGUUUAUCAUG [C85U U135C] | -2.09
27 | GGAUCUUCUCGAUCUAACAAAAAAGACAAAUCUGCCACAAAGCUUGAGAGCAUCUUCGGAUGCAGAGGCGGCAGCCUUCGGUGGCACGGUAGCGCCAACGUUCUCAACUAUGACACGCAAAACGCGUGCUCCGUUGAAUGGAGUUUAUCAUG [G86A A89G] | -3.55
28 | GGAUCUUCUCGAUCUAACAAAAAAGACAAAUCUGCCACAAAGCUUGAGAGCAUCUUCGGAUGCAGAGGCGGCAGCCUUCGGUGGUGCGAUAGCGCCAACGUUCUCAACUAUGACACGCAAAAUGCGCGCUCCGUUGAAUGGAGUUUAUCAUG [C85U C123U U127C] | -1.83
29 | GGAUCUUCUCGAUCUAACAAAAAAGACAAAUCUGCCACAAAGCUUGAGAGCAUCUUCGGAUGCAGAGGCGGCAGCCUUCGGUGGUGCGAUAGCGCCAACGUUCUCAACUAUGACACGCAAAACGCGUGCUCCGUUGAAUGGAGCUUAUCAUG [C85U U144C] | 0.118
30 | GGAUCUUCUCGAUCUAACAAAAAAGACAAAUCUGCCACAAAGCUUGAGAGCAUCUUCGGAUGCAGAGGCGGCAGCCUUCGGUGGUGCGAUAGCGCCAACGUUCUCAACUAUGACACGCAAAACGAGUGCUCCGUUGAAUGGAGUUUAUCAUG [C85U C125A] | -1.45
31 | GGAUCUUCUCGAUCUAACAAAAAAGACAAAUCUGCCACAAAGCUUGAGAGCAUCUUCGGAUGCAGAGGCGGCAGCCUUCGGUGGCACGAUAGCACCAACGUUCUCAACUGUGACACGCAAAACGCGUGCUCCGUUGAAUGGAGUUUAUCAUG [G86A G94A A110G] | ≤ -4.2
32 | GGAUCUUCUCGAUCUAACAAAAAAGACAAAUCUGCCACAAAGCUUGAGAGCAUCUUCGGAUGCAGAGGCGGCAGCCUUCGGUGGUGCAAUAGCGCCAACGUUCUCAACUAUGACACGCAAAACGCGUGCUCCGUUGAAUGGAGUUUAUCAUG [C85U G88A] | -3.73
33 | GGAUCUUCUCGAUCUAACAAAAAAGACAAAUCUGCCACAAAGCUUGAGAGCAUCUUCGGAUGCAGAGGCGGCAGCCUUCGGUGGUGCGAUAGCGCCAACGUUCUCAACUAUGACACGGAAAACGAGUGCUCCGUUGAAUGGAGUUUAUCAUG [C85U C118G C125A] | -0.0117
34 | GGAUCUUCUCGAUCUAACAAAAAAGACAAAUCUGCCACAAAGCUUGAGAGCAUCUUCGGAUGCAGAGGCGGCAGCCUUCGGUGGUGCGAUAGCGCCAACGUUCUCAACUAUGACACGUAAAACGCGUGCUCCGUUGAAUGUAGUUUAUCAUG [C85U C118U G141U] | 0.748
35 | GGAUCUUCUCGAUCUAACAAAAAAGACAAAUCUGCCACAAAGCUUGAGAGCAUCUUCGGAUGCAGAGGCGGCAGCCUUCGGUGGCCCGAUAGCGCCUUCGUUCUCAACUAUGACACGCAAAACGCGUGCUCCGUUGAAUGGAGUUUAUCAUG [G86C A97U A98U] | -3.05
36 | GGAUCUUCUCGAUCUAACAAAAAAGACAAAUCUGCCACAAAGCUUGAGAGCAUCUUCGGAUGCAGAGGCGGCAGCCUUCGGUGGUGCGAUAGCGCCAACGUUCUCAACUAUGAAACGCAAAACGCGUGCUCCGUUGAAUGGAGUUUAUCAUG [C85U C114A] | -3.52
37 | GGAUCUUCUCGAUCUAACAAAAAAGACAAAUCUGCCACAAAGCUUGAGAGCAUCUUCGGAUGCAGAGGCGGCAGCCUUCGGUGGUGCGAUAGCGCCAACGCUCUCAACUAUGACACGCAAAACGCGUGCUCCGUUGAAUGGAGUUUAUCAUG [C85U U101C] | -0.749
38 | GGAUCUUCUCGAUCUAACAAAAAAGACAAAUCUGCCACAAAGCUUGAGAGCAUCUUCGGAUGCAGAGGCGGCAGCCUUCGGUGGUGCGAUAGCGCCAACGUUCUCAACUAUGACACGCAAAACGCGUGCUCCGUUGAAUGGAGUUCAUCAUG [C85U U146C] | -0.574
